In patent publication US7375083B2, “Pharmaceutical compositions for prevention of overdose or abuse” (Shire LLC, priority 2003, dated 2008):
Where a SMILES comes first, the peptide text is derived from it. The star is where a group is joined. X1 = COc1ccc2c3c1O[C@H]1C(O*)=CC[C@H]4[C@@H](C2)N(C)CC[C@]314

Columns and labels:
[1] = Intranasal bioavailability of hydrocodone conjugates in rats, LC/MS/MS; details: intranasal, 1 mg/kg dose; for AUC (ng/ml h) 0-1 h / Cmax: hydrocodone plus hydromorphone; for Percent HC (AUC) / Percent HC (Cmax): relative to hydrocodone bitartrate
[2] = Oral bioavailability of hydrocodone conjugates in rats, LC/MS/MS; details: for Percent Decrease 1 mg/kg vs. 5 mg/kg AUC / Percent Decrease 1 mg/kg vs. 5 mg/kg Cmax: oral bioavailability; for hydrocodone plus hydromorphone concentration / AUC (ng/ml h) 0-8 h / Cmax / Percent HC (AUC) / Percent HC (Cmax) / Peak levels and bioavailability: oral; for AUC (ng/ml h) 0-8 h / Cmax: hydrocodone plus hydromorphone; for Percent HC (AUC) / Percent HC (Cmax): relative to hydrocodone bitartrate; for Peak levels and bioavailability: rat, 5 mg/kg
[3] = Oral pharmacokinetics in rats, plasma d-amphetamine by ELISA; details: Oral, relative to amphetamine (first value where two are given)
[4] = Intravenous bioavailability of hydrocodone conjugates in rats, LC/MS/MS; details: intravenous, 1 mg/kg dose; for AUC (ng/ml h) 0-1 h / Cmax: hydrocodone plus hydromorphone; for Percent HC (AUC) / Percent HC (Cmax): relative to hydrocodone bitartrate

## CC[C@H](C)[C@H](NC(=O)[C@H](CC(=O)O)NC(=O)[C@@H](N)CC(=O)O)C(=O)OC1=CC[C@H]2[C@H]3Cc4ccc(OC)c5c4[C@@]2(CCN3C)[C@H]1O5 [DDI-HC, Asp-Asp-Ile-Hydrocodone]
[1]; 5 Minutes
  hydrocodone plus hydromorphone concentration: 281 ng/mL
[1]; 15 Minutes
  hydrocodone plus hydromorphone concentration: 121 ng/mL
[1]; 30 Minutes
  hydrocodone plus hydromorphone concentration: 64 ng/mL
[1]; 60 Minutes
  hydrocodone plus hydromorphone concentration: 16 ng/mL
[1]
  AUC (ng/ml h) 0-1 h: 88 ng·h/mL
  Cmax: 281 ng/mL
  Percent HC (AUC): 31%
  Percent HC (Cmax): 51%
[2]
  Percent Decrease 1 mg/kg vs. 5 mg/kg AUC: 9%
  Percent Decrease 1 mg/kg vs. 5 mg/kg Cmax: 9%
  Peak levels and bioavailability: substantially decreased
[2]; 1 mg/kg dose, 0.5 Hours
  hydrocodone plus hydromorphone concentration: 14.9 ng/mL
[2]; 1 mg/kg dose, 1.5 Hours
  hydrocodone plus hydromorphone concentration: 5 ng/mL
[2]; 1 mg/kg dose, 3 Hours
  hydrocodone plus hydromorphone concentration: 0 ng/mL
[2]; 1 mg/kg dose, 5 Hours
  hydrocodone plus hydromorphone concentration: 0 ng/mL
[2]; 1 mg/kg dose, 8 Hours
  hydrocodone plus hydromorphone concentration: 0 ng/mL
[2]; 1 mg/kg dose
  AUC (ng/ml h) 0-8 h: 17.4 ng·h/mL
  Cmax: 14.9 ng/mL
  Percent HC (AUC): 124%
  Percent HC (Cmax): 173%
[2]; 5 mg/kg dose, 0.5 Hours
  hydrocodone plus hydromorphone concentration: 115 ng/mL
[2]; 5 mg/kg dose, 1.5 Hours
  hydrocodone plus hydromorphone concentration: 19 ng/mL
[2]; 5 mg/kg dose, 3 Hours
  hydrocodone plus hydromorphone concentration: 11 ng/mL
[2]; 5 mg/kg dose, 5 Hours
  hydrocodone plus hydromorphone concentration: 4 ng/mL
[2]; 5 mg/kg dose, 8 Hours
  hydrocodone plus hydromorphone concentration: 3.1 ng/mL
[2]; 5 mg/kg dose
  AUC (ng/ml h) 0-8 h: 145 ng·h/mL
  Cmax: 115 ng/mL
  Percent HC (AUC): 113%
  Percent HC (Cmax): 158%

## CC(Cc1ccccc1)NC(=O)C(N)CCC(=O)O (centres unmarked) [E-Amp]
[3]
  Percent AUC: 73%
  Percent Cmax: 95%

## CC(Cc1ccccc1)NC(=O)[C@H](CCC(=O)O)NC(=O)[C@@H](N)CCC(=O)O (some centres unmarked) [EE-Amp]
[3]
  Percent AUC: 26%
  Percent Cmax: 74%

## CC(Cc1ccccc1)NC(=O)[C@H](Cc1ccccc1)NC(=O)[C@H](CCC(=O)O)NC(=O)[C@@H](N)CCC(=O)O (some centres unmarked) [EEF-Amp]
[3]
  Percent AUC: 42%
  Percent Cmax: 73%

## COc1ccc2c3c1O[C@H]1C(OC(=O)[C@H](Cc4ccccc4)NC(=O)[C@H](Cc4ccccc4)NC(=O)[C@H](Cc4ccccc4)NC(=O)[C@H](CCC(=O)O)NC(=O)[C@@H](N)CCC(=O)O)=CC[C@H]4[C@@H](C2)N(C)CC[C@]314 [EEFFF[SEQ ID NO: 3]-HC, Glu-Glu-Phe-Phe-Phe[SEQ ID NO: 3]-Hydrocodone] (H-EEFFF-X1)
[1]; 5 Minutes
  hydrocodone plus hydromorphone concentration: 34 ng/mL
[1]; 15 Minutes
  hydrocodone plus hydromorphone concentration: 21 ng/mL
[1]; 30 Minutes
  hydrocodone plus hydromorphone concentration: 24 ng/mL
[1]; 60 Minutes
  hydrocodone plus hydromorphone concentration: 15 ng/mL
[1]
  AUC (ng/ml h) 0-1 h: 21 ng·h/mL
  Cmax: 34 ng/mL
  Percent HC (AUC): 14%
  Percent HC (Cmax): 13%
[4]; 5 Minutes
  hydrocodone plus hydromorphone concentration: 135 ng/mL
[4]; 15 Minutes
  hydrocodone plus hydromorphone concentration: 77 ng/mL
[4]; 30 Minutes
  hydrocodone plus hydromorphone concentration: 140 ng/mL
[4]; 60 Minutes
  hydrocodone plus hydromorphone concentration: 85 ng/mL
[4]
  AUC (ng/ml h) 0-1 h: 107 ng·h/mL
  Cmax: 135 ng/mL
  Percent HC (AUC): 62%
  Percent HC (Cmax): 75%
[2]; 1 mg/kg dose, 0.5 Hours
  hydrocodone plus hydromorphone concentration: 11.3 ng/mL
[2]; 1 mg/kg dose, 1.5 Hours
  hydrocodone plus hydromorphone concentration: 4.1 ng/mL
[2]; 1 mg/kg dose, 3 Hours
  hydrocodone plus hydromorphone concentration: 1.2 ng/mL
[2]; 1 mg/kg dose, 5 Hours
  hydrocodone plus hydromorphone concentration: 1.2 ng/mL
[2]; 1 mg/kg dose, 8 Hours
  hydrocodone plus hydromorphone concentration: 1.2 ng/mL
[2]; 1 mg/kg dose
  AUC (ng/ml h) 0-8 h: 20.7 ng·h/mL
  Cmax: 11.3 ng/mL
  Percent HC (AUC): 108%
  Percent HC (Cmax): 119%

## CC[C@H](C)[C@H](NC(=O)[C@H](Cc1ccccc1)NC(=O)[C@H](Cc1ccccc1)NC(=O)[C@H](CCC(=O)O)NC(=O)[C@@H](N)CCC(=O)O)C(=O)OC1=CC[C@H]2[C@H]3Cc4ccc(OC)c5c4[C@@]2(CCN3C)[C@H]1O5 [EEFFI[SEQ ID NO: 5]-HC, Glu-Glu-Phe-Phe-Ile[SEQ ID NO: 5]-Hydrocodone] (H-EEFFI-X1)
[4]; 5 Minutes
  hydrocodone plus hydromorphone concentration: 89 ng/mL
[4]; 15 Minutes
  hydrocodone plus hydromorphone concentration: 76 ng/mL
[4]; 30 Minutes
  hydrocodone plus hydromorphone concentration: 78 ng/mL
[4]; 60 Minutes
  hydrocodone plus hydromorphone concentration: 66 ng/mL
[4]
  AUC (ng/ml h) 0-1 h: 66 ng·h/mL
  Cmax: 89 ng/mL
  Percent HC (AUC): 38%
  Percent HC (Cmax): 44%
[2]
  Percent Decrease 1 mg/kg vs. 5 mg/kg AUC: 70%
  Percent Decrease 1 mg/kg vs. 5 mg/kg Cmax: 65%
  Peak levels and bioavailability: substantially decreased
[2]; 1 mg/kg dose, 0.5 Hours
  hydrocodone plus hydromorphone concentration: 12.9 ng/mL
[2]; 1 mg/kg dose, 1.5 Hours
  hydrocodone plus hydromorphone concentration: 5.2 ng/mL
[2]; 1 mg/kg dose, 3 Hours
  hydrocodone plus hydromorphone concentration: 4.2 ng/mL
[2]; 1 mg/kg dose, 5 Hours
  hydrocodone plus hydromorphone concentration: 0 ng/mL
[2]; 1 mg/kg dose, 8 Hours
  hydrocodone plus hydromorphone concentration: 1.6 ng/mL
[2]; 1 mg/kg dose
  AUC (ng/ml h) 0-8 h: 25.8 ng·h/mL
  Cmax: 12.9 ng/mL
  Percent HC (AUC): 135%
  Percent HC (Cmax): 136%
[2]; 5 mg/kg dose, 0.5 Hours
  hydrocodone plus hydromorphone concentration: 44 ng/mL
[2]; 5 mg/kg dose, 1.5 Hours
  hydrocodone plus hydromorphone concentration: 6.5 ng/mL
[2]; 5 mg/kg dose, 3 Hours
  hydrocodone plus hydromorphone concentration: 5.7 ng/mL
[2]; 5 mg/kg dose, 5 Hours
  hydrocodone plus hydromorphone concentration: 4.2 ng/mL
[2]; 5 mg/kg dose, 8 Hours
  hydrocodone plus hydromorphone concentration: 4.5 ng/mL
[2]; 5 mg/kg dose
  AUC (ng/ml h) 0-8 h: 68 ng·h/mL
  Cmax: 44 ng/mL
  Percent HC (AUC): 41%
  Percent HC (Cmax): 47%

## CC(Cc1ccccc1)NC(=O)[C@H](Cc1ccccc1)NC(=O)[C@@H](N)Cc1ccccc1 (some centres unmarked) [FF-Amp]
[3]
  Percent AUC: 27%
  Percent Cmax: 64%

## CC(Cc1ccccc1)NC(=O)CNC(=O)CN (centres unmarked) [GG-Amp]
[3]
  Percent AUC: 79%
  Percent Cmax: 88%

## CC(Cc1ccccc1)NC(=O)C(N)Cc1cnc[nH]1 (centres unmarked) [H-Amp]
[3]
  Percent AUC: 16%
  Percent Cmax: 21%
